*1 amine or outer side, *2 acyl side, *3 side chain or, on linkers, in order; H or OH if unused. Where no end group is shown, it is not given here. Side-chain parts run from the residue outwards. [ ]: non-standard residue; d: D form. The star is where a group is joined. C20 diacid = O=C(O)CCCCCCCCCCCCCCCCCCC(=O)*; C18 diacid = O=C(O)CCCCCCCCCCCCCCCCC(=O)*; γGlu = O=C(O)[C@H](CCC(=O)[*:2])N[*:1]; εLys = N[C@@H](CCCCN[*:1])C(=O)[*:2]; AEEA = NCCOCCOCC(=O)O; Aib = CC(C)(N)C(=O)O
T1: human GIP receptor (human, UniProt P48546 22-466)
T1 sequence (looked up): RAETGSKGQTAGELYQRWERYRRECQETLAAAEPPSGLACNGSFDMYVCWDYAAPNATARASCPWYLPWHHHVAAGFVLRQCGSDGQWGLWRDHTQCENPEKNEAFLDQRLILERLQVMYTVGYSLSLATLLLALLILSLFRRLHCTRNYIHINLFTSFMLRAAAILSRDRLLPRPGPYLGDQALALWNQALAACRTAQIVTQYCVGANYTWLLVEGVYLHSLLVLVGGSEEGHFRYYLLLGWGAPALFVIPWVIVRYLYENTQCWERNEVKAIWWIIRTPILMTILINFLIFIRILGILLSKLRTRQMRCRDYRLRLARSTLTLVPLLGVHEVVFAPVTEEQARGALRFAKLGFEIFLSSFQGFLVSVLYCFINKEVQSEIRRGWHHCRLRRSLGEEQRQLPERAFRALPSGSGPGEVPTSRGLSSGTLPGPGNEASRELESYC

T2: human neuropeptide Y2 receptor (human, UniProt P49146 1-381)
T2 sequence (looked up): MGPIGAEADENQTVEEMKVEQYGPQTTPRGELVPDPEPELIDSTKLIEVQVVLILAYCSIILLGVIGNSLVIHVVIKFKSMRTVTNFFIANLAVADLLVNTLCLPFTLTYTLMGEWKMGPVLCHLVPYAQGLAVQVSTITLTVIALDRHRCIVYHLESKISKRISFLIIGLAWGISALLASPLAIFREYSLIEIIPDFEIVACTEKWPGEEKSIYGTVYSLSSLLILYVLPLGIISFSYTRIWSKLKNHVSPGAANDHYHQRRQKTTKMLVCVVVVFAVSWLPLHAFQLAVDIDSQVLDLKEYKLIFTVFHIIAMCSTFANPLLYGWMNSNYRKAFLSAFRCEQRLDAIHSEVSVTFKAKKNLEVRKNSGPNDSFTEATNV

T3: human GIP receptor (human, UniProt P48546 22-466)
T3 sequence (looked up): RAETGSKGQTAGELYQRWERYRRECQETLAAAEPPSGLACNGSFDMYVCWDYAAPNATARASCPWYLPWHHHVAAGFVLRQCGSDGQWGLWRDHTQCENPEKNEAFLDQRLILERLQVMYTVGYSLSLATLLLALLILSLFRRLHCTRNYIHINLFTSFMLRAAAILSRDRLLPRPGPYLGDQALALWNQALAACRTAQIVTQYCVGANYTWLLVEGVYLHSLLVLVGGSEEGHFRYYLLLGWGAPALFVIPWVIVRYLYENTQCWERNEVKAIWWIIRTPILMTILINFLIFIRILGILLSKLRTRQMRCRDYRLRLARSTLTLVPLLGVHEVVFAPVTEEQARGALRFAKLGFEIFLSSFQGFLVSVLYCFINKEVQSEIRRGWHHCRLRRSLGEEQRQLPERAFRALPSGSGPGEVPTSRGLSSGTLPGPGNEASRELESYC

T4: human neuropeptide Y2 receptor (human, UniProt P49146 1-381)
T4 sequence (looked up): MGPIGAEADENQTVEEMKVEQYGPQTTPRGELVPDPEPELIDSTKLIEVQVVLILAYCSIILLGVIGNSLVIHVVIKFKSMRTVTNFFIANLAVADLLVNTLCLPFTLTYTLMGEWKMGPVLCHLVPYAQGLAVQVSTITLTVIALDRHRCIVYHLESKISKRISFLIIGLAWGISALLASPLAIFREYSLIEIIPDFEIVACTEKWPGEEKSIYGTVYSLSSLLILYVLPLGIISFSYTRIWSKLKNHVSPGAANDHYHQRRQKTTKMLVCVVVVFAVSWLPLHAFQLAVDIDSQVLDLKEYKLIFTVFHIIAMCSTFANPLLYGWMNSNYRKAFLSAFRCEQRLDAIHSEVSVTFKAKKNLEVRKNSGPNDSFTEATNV


Columns and labels:
Assay in all cases: cell-based or functional assay
human GIP receptor [1] = molecular target: T1, human GIP receptor
[2] = molecular target: T2, human neuropeptide Y2 receptor
human GIP receptor [3] = molecular target: T3, human GIP receptor; remark: listed apart in the source
[4] = molecular target: T4, human neuropeptide Y2 receptor; remark: listed apart in the source

Binder	EC50, CreLuc reporter, 0.5% hP (human GIP receptor [1]) [nM]	EC50, CreLuc reporter, 100% hP (human GIP receptor [1]) [nM]	EC50, CreLuc reporter, 0.5% hP [2] [nM]	EC50, CreLuc reporter, 100% hP [2] [nM]	EC50, CreLuc reporter, 0.5% hP (human GIP receptor [3]) [nM]	EC50, CreLuc reporter, 100% hP (human GIP receptor [3]) [nM]	EC50, CreLuc reporter, 0.5% hP [4] [nM]	EC50, CreLuc reporter, 100% hP [4] [nM]
YXEGTFTSDYSIXLDKQAQXAFIRHLINKXTRQRY (Aib at 2, 13, 20, 30; Lys29 epsilon-amino: C18DA-gGlu-gGlu-gGlu-gGlu-gGlu-gGlu-eLys; C-terminal amide) [Compound 102]	0.1	2.8	–	–	–	–	–	–
YXEGTFTSDYSIXLEKQAQXEFVRHLINKLTRQRY (Aib at 2, 13, 20; Lys29 epsilon-amino acylated with C18DA-gGlu-gGlu-gGlu-gGlu-gGlu-gGlu-eLys; C-terminal amide) [Compound 83]	–	–	16.8	31.7	0.4	–	–	–
YXEGTFTSDYSIXLEKQAQAAFVRHLINKXTRQRY (Aib at 2, 13, 30; Lys29 epsilon-amino acylated with C18DA-gGlu-gGlu-gGlu-gGlu-gGlu-gGlu-eLys; C-terminal amide) [Compound 61]	–	–	24.1	42.1	0.4	–	–	–
YXEGTFTSDYSIXLENQAQXAFVRHLINKXTRQRY (Aib at 2, 13, 20, 30; Lys29 epsilon-amino acylated with C18DA-gGlu-gGlu-gGlu-gGlu-gGlu-gGlu-eLys; C-terminal amide) [Compound 6]	–	–	14.7	51	0.7	7.3	–	–
YXEGTFTSDYSIXLEKQAQXAFIRHLINKXTRQRY (Aib at 2, 20, 30; aMeL at 13; Lys29 epsilon-amino acylated with C18DA-gGlu-gGlu-gGlu-gGlu-gGlu-gGlu-eLys; C-terminal amide) [Compound 76]	–	–	7.2	24.3	–	0.5	–	–
YXEGTFTSDYSIXLEKQAQXAFVRHLINKXTRQRX (Aib at 2, 13, 20, 30; Phe4F at 35; Lys29 epsilon-amino: C18DA-gGlu-gGlu-gGlu-gGlu-gGlu-gGlu-eLys; C-terminal amide) [Compound 86]	0.3	5.9	–	–	–	–	33.2	162
YXEGTFTSDLSIXLEKQAQXAFVRHLINKXTRQRY (Aib at 2, 13, 20, 30; Lys29 epsilon-amino acylated with C20DA-gGlu-gGlu-gGlu-gGlu-gGlu-AHX-AHX; C-terminal amide) [Compound 1]	–	–	12.6	127	0.2	10.3	–	–
YXEGTFTSDYSIXLEKQAQEAFVRHLINKXTRQRY (Aib at 2, 13, 30; Lys29 epsilon-amino: C18DA-gGlu-gGlu-gGlu-gGlu-gGlu-gGlu-eLys; C-terminal amide) [Compound 170]	0.4	–	–	–	–	–	43.8	244
YXEGTFTSDYSIXLEKQAQXAFVRHLINKLTRQRY (Aib at 2, 13, 20; Lys29 epsilon-amino: C18DA-gGlu-gGlu-gGlu-gGlu-gGlu-gGlu-eLys; C-terminal amide) [Compound 127]	–	16.7	–	–	–	–	10.3	76.9
YXEATFTSDYSIXLEKQAQXAFVRHLINKXTRQRY (Aib at 2, 13, 20, 30; Lys29 epsilon-amino: C18DA-gGlu-gGlu-gGlu-gGlu-gGlu-gGlu-eLys; C-terminal amide) [Compound 93]	–	17.6	–	–	–	–	–	24.8
YXEGTFTSDYSIXLEKQAQXAFVRHLINKLTRQRY (Aib at 2, 13, 20; Lys29 epsilon-amino acylated with C18DA-gGlu-gGlu-gGlu-gGlu-gGlu-AHX; C-terminal amide) [Compound 69]	–	–	7	56	0.2	5.5	–	–
YXEGTFTSDYSIXLEKQAYXAFVRHLINKXTRQRY (Aib at 2, 13, 20, 30; Lys29 epsilon-amino acylated with C18DA-gGlu-gGlu-gGlu-gGlu-gGlu-gGlu-eLys; C-terminal amide) [Compound 84]	–	–	18.5	55	5	48.4	–	–
Y[Aib]EGTFTSDYSI[Aib]LEKQAE[Aib]AFVRHLINK([εLys-γGlu-AEEA-γGlu-γGlu-γGlu-γGlu-C20 diacid])[Aib]TRQRY-NH2 [Compound 148]	0.8	–	–	–	–	–	–	–
Y[Aib]EGTFTSDLSI[Aib]LEKQAQ[Aib]AFVRHLINK([γGlu-εLys-γGlu-γGlu-γGlu-γGlu-γGlu-C20 diacid])[Aib]TRQRY-NH2 [Compound 60]	–	–	–	124	0.3	8	–	–
Y[Aib]EGTFTSDYSI[Aib]LEKQAQ[Aib]AFVRHLINK([εLys-γGlu-γGlu-γGlu-γGlu-γGlu-γGlu-γGlu-C18 diacid])[Aib]TRQRY-NH2 [Compound 121]	–	2.8	–	–	–	–	13.8	–
Y[Aib]EGTFTSDYSI[Aib]LDKQAQ[Aib]EFVRHLINK([εLys-γGlu-γGlu-γGlu-γGlu-γGlu-C18 diacid])[Aib]TRQRY-NH2 [Compound 113]	0.2	5.5	–	–	–	–	–	–

From patent publication US20250382344A1, “Soluble GLP1/GIP/NPY2 Receptor Triple Agonists” (Boehringer Ingelheim International GmH, priority 2024, published 2025)
